How the values were obtained:
c-Src SH2 = assay: SH2 binding enrichment of the phosphorylated peptide, bacterial display (enrichment ratio); higher = better substrate or ligand; peptides without Tyr show the background
Grb2 SH2 = Grb2 SH2 (UniProt P62993); assay: as above
SHP2-C SH2 = assay: as above
MERTK = MERTK (UniProt Q12866); assay: phosphorylation enrichment, bacterial display (enrichment ratio); higher = better substrate or ligand; peptides without Tyr show the background
AncSZ = assay: as above
Jak2 = Jak2 (UniProt O60674); assay: as above
FGFR3 = FGFR3 (UniProt P22607); assay: as above
Hck = Hck (UniProt P08631); assay: as above
Fyn = Fyn (UniProt P06241); assay: as above
FGFR1 = FGFR1 (UniProt P11362); assay: as above
Fes = Fes (UniProt P07332); assay: as above
c-Abl (mouse) = assay: as above
EPHB2 = EPHB2 (UniProt P29323); assay: as above
Fer (mouse) = assay: as above
EPHB1 = EPHB1 (UniProt P54762); assay: as above
c-Src = assay: as above
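For SH2 binding enrichment of the phosphorylated peptide, bacterial display in this document: peptide library displayed on the E. coli surface as eCPX fusions, selected cells deep-sequenced, score is each peptide's frequency after selection divided by its frequency in the input.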
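For phosphorylation enrichment, bacterial display in this document: 11-residue human phosphosite peptides and single-mutation variants displayed on the E. coli surface, counted by deep sequencing, each peptide's frequency after selection divided by its frequency in the unselected input library; frequency after pTyr selection over input frequency; kinase dosed for 20-30% of maximal phosphorylation in three min.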

EPHB2, sequence (P29323 whole entry, looked up): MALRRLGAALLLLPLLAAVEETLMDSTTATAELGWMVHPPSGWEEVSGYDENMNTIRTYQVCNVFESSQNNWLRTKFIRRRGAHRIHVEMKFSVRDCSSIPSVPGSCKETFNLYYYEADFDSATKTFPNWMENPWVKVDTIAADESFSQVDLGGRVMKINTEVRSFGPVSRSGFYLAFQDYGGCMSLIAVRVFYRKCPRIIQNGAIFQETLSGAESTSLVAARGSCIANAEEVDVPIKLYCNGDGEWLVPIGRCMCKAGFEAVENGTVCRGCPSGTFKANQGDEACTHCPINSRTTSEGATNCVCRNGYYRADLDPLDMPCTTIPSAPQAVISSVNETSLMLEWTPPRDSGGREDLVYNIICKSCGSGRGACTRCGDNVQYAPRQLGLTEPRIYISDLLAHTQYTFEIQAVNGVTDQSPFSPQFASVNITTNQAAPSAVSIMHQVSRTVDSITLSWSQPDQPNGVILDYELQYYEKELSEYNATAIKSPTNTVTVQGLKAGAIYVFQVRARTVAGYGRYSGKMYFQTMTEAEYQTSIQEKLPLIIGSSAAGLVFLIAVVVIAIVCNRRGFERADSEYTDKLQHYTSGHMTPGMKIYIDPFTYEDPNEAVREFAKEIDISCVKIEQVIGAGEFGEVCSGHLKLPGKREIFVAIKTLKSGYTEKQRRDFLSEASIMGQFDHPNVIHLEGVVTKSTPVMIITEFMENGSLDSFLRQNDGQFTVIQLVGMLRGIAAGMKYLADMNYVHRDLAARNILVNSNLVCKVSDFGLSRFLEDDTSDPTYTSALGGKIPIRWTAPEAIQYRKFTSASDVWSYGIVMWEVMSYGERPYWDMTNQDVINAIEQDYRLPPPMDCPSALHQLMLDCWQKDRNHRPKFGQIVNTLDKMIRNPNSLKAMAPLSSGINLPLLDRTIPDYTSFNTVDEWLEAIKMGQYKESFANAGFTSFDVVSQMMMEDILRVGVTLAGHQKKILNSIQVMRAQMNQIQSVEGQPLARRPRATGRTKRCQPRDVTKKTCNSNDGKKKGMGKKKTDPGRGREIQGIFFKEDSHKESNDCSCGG
Jak2, sequence (O60674 whole entry, looked up): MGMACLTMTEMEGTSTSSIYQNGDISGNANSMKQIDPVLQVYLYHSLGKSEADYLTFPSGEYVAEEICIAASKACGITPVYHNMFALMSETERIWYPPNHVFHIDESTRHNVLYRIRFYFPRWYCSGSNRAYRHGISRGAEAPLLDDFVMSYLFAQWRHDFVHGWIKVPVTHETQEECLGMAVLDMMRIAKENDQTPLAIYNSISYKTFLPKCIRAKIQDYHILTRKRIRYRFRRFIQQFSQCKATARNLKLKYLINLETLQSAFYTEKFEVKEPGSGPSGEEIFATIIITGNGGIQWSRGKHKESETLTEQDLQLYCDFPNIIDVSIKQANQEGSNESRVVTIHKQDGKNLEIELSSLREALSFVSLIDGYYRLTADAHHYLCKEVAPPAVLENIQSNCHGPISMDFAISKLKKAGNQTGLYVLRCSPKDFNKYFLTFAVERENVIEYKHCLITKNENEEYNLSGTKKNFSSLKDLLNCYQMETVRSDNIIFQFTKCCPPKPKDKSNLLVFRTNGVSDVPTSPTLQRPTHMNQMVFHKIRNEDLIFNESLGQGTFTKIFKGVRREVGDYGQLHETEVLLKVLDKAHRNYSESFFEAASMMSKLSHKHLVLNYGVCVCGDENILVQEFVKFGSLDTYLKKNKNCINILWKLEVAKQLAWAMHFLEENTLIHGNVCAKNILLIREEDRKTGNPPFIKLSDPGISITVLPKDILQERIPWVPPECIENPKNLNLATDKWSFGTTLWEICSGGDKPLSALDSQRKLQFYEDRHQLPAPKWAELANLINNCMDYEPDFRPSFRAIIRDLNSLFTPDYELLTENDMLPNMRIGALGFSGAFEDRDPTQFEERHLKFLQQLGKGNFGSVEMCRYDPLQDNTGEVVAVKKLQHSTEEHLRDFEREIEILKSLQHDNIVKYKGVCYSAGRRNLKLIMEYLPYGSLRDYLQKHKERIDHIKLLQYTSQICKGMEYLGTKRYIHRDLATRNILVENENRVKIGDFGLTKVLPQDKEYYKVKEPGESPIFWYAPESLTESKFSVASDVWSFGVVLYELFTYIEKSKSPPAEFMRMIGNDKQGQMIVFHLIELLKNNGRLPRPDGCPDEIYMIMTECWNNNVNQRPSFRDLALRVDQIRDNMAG
FGFR1, sequence (P11362 whole entry, looked up): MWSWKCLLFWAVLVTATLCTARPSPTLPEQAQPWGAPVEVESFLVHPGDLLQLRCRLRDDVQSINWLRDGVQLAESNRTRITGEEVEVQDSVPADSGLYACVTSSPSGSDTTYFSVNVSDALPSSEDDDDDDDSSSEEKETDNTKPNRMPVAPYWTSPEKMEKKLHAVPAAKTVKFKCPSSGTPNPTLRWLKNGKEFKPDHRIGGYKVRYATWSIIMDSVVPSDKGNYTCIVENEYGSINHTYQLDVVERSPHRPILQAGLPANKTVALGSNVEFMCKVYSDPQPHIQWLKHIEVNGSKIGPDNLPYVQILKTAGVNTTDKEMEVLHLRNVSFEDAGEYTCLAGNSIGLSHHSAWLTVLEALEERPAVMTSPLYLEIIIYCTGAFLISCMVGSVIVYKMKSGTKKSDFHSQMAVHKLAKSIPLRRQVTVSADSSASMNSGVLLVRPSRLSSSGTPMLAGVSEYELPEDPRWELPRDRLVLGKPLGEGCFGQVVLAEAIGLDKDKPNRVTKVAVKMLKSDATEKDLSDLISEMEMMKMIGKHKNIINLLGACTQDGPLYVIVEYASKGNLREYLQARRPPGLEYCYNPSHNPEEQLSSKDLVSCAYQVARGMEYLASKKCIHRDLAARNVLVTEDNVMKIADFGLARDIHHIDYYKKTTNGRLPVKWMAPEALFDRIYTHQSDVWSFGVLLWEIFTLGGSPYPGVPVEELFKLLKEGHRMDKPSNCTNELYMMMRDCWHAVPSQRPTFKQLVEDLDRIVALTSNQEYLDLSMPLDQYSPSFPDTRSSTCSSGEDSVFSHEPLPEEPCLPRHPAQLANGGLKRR
EPHB1, sequence (P54762 whole entry, looked up): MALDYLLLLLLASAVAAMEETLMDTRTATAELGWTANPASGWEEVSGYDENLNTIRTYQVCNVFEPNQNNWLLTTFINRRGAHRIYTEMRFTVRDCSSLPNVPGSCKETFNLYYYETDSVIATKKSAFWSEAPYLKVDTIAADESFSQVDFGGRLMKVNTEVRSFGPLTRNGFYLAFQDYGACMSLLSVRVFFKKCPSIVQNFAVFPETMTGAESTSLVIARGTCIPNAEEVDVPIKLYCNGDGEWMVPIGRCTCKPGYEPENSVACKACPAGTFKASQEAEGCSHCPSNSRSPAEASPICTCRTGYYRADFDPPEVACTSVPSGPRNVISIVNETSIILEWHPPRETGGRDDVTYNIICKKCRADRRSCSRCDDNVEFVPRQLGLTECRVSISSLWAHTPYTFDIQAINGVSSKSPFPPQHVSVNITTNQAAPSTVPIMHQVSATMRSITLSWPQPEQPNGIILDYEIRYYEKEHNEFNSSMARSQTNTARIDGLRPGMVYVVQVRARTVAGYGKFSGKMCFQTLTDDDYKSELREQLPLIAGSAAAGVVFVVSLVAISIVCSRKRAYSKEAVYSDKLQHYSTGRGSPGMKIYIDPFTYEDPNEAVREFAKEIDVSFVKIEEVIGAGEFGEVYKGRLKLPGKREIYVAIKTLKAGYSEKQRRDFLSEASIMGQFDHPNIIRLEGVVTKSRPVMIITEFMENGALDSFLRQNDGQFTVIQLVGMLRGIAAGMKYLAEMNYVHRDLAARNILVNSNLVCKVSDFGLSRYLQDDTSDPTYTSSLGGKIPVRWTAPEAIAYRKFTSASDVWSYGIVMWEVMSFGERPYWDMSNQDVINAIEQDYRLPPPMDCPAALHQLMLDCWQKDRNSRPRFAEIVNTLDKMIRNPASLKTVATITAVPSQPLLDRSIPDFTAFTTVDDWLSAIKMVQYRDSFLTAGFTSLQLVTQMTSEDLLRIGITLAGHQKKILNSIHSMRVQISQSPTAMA
MERTK, sequence (Q12866 whole entry, looked up): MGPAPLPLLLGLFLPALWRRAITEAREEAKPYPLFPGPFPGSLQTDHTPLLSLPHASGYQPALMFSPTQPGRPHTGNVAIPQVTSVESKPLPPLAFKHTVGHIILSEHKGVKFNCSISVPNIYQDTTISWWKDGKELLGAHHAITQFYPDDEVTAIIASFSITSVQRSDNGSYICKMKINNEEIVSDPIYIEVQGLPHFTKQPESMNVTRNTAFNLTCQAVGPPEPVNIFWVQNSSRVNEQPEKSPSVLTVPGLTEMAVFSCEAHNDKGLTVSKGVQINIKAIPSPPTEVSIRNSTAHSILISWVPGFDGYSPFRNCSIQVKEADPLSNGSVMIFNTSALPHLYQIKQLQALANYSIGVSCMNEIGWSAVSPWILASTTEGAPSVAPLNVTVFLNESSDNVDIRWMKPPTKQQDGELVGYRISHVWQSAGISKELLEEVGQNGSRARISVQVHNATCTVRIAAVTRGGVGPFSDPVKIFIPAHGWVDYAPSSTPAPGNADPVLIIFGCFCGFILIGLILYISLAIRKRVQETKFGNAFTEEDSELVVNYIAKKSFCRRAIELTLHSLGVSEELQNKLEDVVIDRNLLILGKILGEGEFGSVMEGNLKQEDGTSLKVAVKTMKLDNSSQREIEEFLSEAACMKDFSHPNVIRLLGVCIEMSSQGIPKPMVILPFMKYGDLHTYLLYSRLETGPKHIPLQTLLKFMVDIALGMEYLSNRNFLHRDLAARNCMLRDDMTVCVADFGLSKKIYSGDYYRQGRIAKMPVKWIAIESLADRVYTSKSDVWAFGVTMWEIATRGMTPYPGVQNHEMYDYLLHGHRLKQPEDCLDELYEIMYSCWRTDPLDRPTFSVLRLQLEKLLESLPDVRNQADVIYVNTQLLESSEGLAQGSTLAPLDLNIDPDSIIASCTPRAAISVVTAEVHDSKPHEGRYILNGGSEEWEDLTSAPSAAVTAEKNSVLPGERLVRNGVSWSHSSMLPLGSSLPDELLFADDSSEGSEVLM

Sequence | SH2 binding enrichment (c-Src SH2) | SH2 binding enrichment (Grb2 SH2) | SH2 binding enrichment (SHP2-C SH2) | phosphorylation enrichment (MERTK) | phosphorylation enrichment (AncSZ) | phosphorylation enrichment (Jak2) | phosphorylation enrichment (FGFR3) | phosphorylation enrichment (Hck) | phosphorylation enrichment (Fyn) | phosphorylation enrichment (FGFR1) | phosphorylation enrichment (Fes) | phosphorylation enrichment (c-Abl (mouse)) | phosphorylation enrichment (EPHB2) | phosphorylation enrichment (Fer (mouse)) | phosphorylation enrichment (EPHB1) | phosphorylation enrichment (c-Src)
LEAVSYSSPFA [RNLS_Y190_R193P_YF] | 1.26 | 0.911 | 3.49 | 0.658 | 1.23 | 0.952 | 0.661 | 0.615 | 0.791 | 1.12 | 1.06 | 2.62 | 0.908 | 0.396 | 0.736 | 0.652
LEDEVCAQKMK [TPM2_Y261_Y261C] | 0.967 | 1.02 | 1.38 | 0.848 | 1.6 | 1.44 | 1.16 | 0.832 | 1.01 | 0.79 | 2.03 | 1.2 | 0.963 | 1.01 | 1.07 | 0.573
LEDPMYDIIRD [RP9_Y142_H137L] | 1.67 | 0.863 | 0.475 | 7.83 | 3.53 | 2.7 | 1.29 | 7.93 | 7.34 | 1.14 | 2.32 | 4.38 | 6.72 | 6.19 | 4.98 | 7.86
LFCLHYFHRTF [SRD5A2_Y91_V89L] | 1.33 | 1.48 | 1.62 | 0.66 | 1.85 | 1.78 | 1.46 | 0.494 | 1.07 | 0.71 | 1.93 | 1.21 | 0.541 | 0.888 | 0.9 | 0.879
LFCVHYFHRTF [SRD5A2_Y91] | 0.918 | 1.3 | 1.08 | 0.989 | 2.32 | 2.73 | 1.97 | 1.16 | 1.04 | 1.04 | 2.73 | 2.35 | 1.24 | 1.47 | 1.26 | 1.14
LFIDSYEKDVA [PGM1_Y521_YF] | 0.787 | 0.835 | 0.728 | 0.848 | 2.09 | 1.22 | 1.48 | 0.816 | 1.41 | 0.855 | 2.05 | 1.36 | 0.755 | 0.767 | 1.34 | 0.694
LFMGDYVGRGF [PPP2CA_Y86_D88G_YF] | 0.487 | 1.01 | 0.817 | 0.456 | 1.38 | 3.61 | 0.739 | 1.53 | 1.5 | 0.919 | 1.04 | 1.1 | 1.48 | 0.412 | 2.4 | 2.31
LGGAMYFLEAE [PKHD1_Y452_YF] | 0.802 | 0.868 | 0.75 | 0.709 | 1.53 | 1.34 | 1.51 | 1.07 | 1.13 | 0.62 | 1.8 | 0.784 | 0.984 | 0.623 | 0.999 | 1.01
LGPDGYSTVDR [ARVCF_Y901] | 29.2 | 0.927 | 1.18 | 0.553 | 2.11 | 1.01 | 0.81 | 0.405 | 0.679 | 0.617 | 1.31 | 0.909 | 0.594 | 0.709 | 0.318 | 0.395
LGSWTYTKTVS [ROS1_Y144] | 0.415 | 0.817 | 0.64 | 0.519 | 1.94 | 1.61 | 1.44 | 1.05 | 0.86 | 1.19 | 2.38 | 0.965 | 1.04 | 0.8 | 2.19 | 0.774

Second part, led by results:

SH2 binding enrichment (c-Src SH2) | SH2 binding enrichment (Grb2 SH2) | SH2 binding enrichment (SHP2-C SH2) | Sequence | phosphorylation enrichment (MERTK) | phosphorylation enrichment (AncSZ) | phosphorylation enrichment (Jak2) | phosphorylation enrichment (FGFR3) | phosphorylation enrichment (Hck) | phosphorylation enrichment (Fyn) | phosphorylation enrichment (FGFR1) | phosphorylation enrichment (Fes) | phosphorylation enrichment (c-Abl (mouse)) | phosphorylation enrichment (EPHB2) | phosphorylation enrichment (Fer (mouse)) | phosphorylation enrichment (EPHB1) | phosphorylation enrichment (c-Src)
0.472 | 0.96 | 1.98 | LDTSQYFRLFN [CPT2_Y217_M214T] | 0.532 | 0.824 | 4.85 | 1.36 | 0.61 | 0.413 | 1.47 | 0.784 | 0.617 | 0.522 | 0.498 | 0.673 | 0.535
0.506 | 0.979 | 0.682 | LEAFQYIGESQ [MSH2_Y856_E853A] | 0.479 | 1.21 | 1.46 | 0.938 | 0.413 | 0.625 | 0.614 | 1.58 | 0.906 | 0.585 | 0.505 | 0.711 | 0.659
0.535 | 0.842 | 0.688 | LEEFQYIGESQ [MSH2_Y856] | 0.61 | 2.09 | 2.43 | 1.11 | 0.558 | 0.722 | 0.733 | 1.62 | 1.25 | 1.19 | 0.918 | 1.03 | 0.882
0.442 | 0.8 | 0.889 | LEKRAYICAHP [ACAD9_Y611] | 0.479 | 0.943 | 0.818 | 0.616 | 0.476 | 0.457 | 0.506 | 0.969 | 0.638 | 0.455 | 0.456 | 0.535 | 0.462
0.469 | 0.784 | 0.836 | LGGSPYPRVPV [FGFR1_Y701_G703R] | 0.4 | 0.435 | 0.507 | 0.471 | 0.412 | 0.429 | 0.47 | 0.55 | 0.483 | 0.426 | 0.444 | 0.356 | 0.426
0.654 | 1.03 | 0.738 | LGPSDYFGEIV [PRKAR1A_Y323_A328V] | 0.529 | 1.41 | 1.06 | 1.42 | 0.577 | 0.655 | 1.49 | 0.913 | 0.746 | 0.722 | 0.586 | 0.717 | 0.781
